Source: PMC9311320
Several values for one entry are separate records, joined by “and”; a condition that tells them apart may be missing. Equal entries are not always repeated.

Tests used:
[1] = molecular target: recombinant human CD38 extracellular domain (ECD) fused to a his-tag (human) (UniProt P28907); test: SPR
[2] = molecular target: human CD38 on Chinese hamster ovary (CHO) cells stably transfected to express CD38 (human) (UniProt P28907); test: flow cytometry on cells
[3] = molecular target: CD38 on CD38+ human cells (Daudi, Ramos, PBMCs) (human (endogenous in Daudi, Ramos and PBMCs)) (UniProt P28907); test: flow cytometry on cells
[4] = molecular target: TNB-738, anti-CD38 biparatopic antibody (human (from transgenic UniRat) | human); test: BLI

Kd [1] [µM]	EC50 [2] [µM]	EC50 [3]	Kd [4] [µM]	Substance
0.0001 to 0.0038	0.0702	0.0397 µM and 0.0503 µM		TNB-738, anti-CD38 biparatopic antibody (bispecific antibody)
			0.00248	recombinant human CD38 extracellular domain (ECD) fused to a his-tag (from UniProt P28907 43-300) (domain or fragment)
